The values below come from paper PMC9127220 (The Journal of Biological Chemistry, 2022).

Like-named read-outs stand apart in the source and are kept apart here.

B1: MukB (natural protein, Escherichia coli, UniProt P22523 1-1486, looked up)
chain: MIERGKFRSLTLINWNGFFARTFDLDELVTTLSGGNGAGKSTTMAAFVTALIPDLTLLHFRNTTEAGATSGSRDKGLHGKLKAGVCYSMLDTINSRHQRVVVGVRLQQVAGRDRKVDIKPFAIQGLPMSVQPTQLVTETLNERQARVLPLNELKDKLEAMEGVQFKQFNSITDYHSLMFDLGIIARRLRSASDRSKFYRLIEASLYGGISSAITRSLRDYLLPENSGVRKAFQDMEAALRENRMTLEAIRVTQSDRDLFKHLISEATNYVAADYMRHANERRVHLDKALEFRRELHTSRQQLAAEQYKHVDMARELAEHNGAEGDLEADYQAASDHLNLVQTALRQQEKIERYEADLDELQIRLEEQNEVVAEAIERQQENEARAEAAELEVDELKSQLADYQQALDVQQTRAIQYNQAIAALNRAKELCHLPDLTADCAAEWLETFQAKELEATEKMLSLEQKMSMAQTAHSQFEQAYQLVVAINGPLARNEAWDVARELLREGVDQRHLAEQVQPLRMRLSELEQRLREQQEAERLLADFCKRQGKNFDIDELEALHQELEARIASLSDSVSNAREERMALRQEQEQLQSRIQSLMQRAPVWLAAQNSLNQLSEQCGEEFTSSQDVTEYLQQLLEREREAIVERDEVGARKNAVDEEIERLSQPGGSEDQRLNALAERFGGVLLSEIYDDVSLEDAPYFSALYGPSRHAIVVPDLSQVTEHLEGLTDCPEDLYLIEGDPQSFDDSVFSVDELEKAVVVKIADRQWRYSRFPEVPLFGRAARESRIESLHAEREVLSERFATLSFDVQKTQRLHQAFSRFIGSHLAVAFESDPEAEIRQLNSRRVELERALSNHENDNQQQRIQFEQAKEGVTALNRILPRLNLLADDSLADRVDEIRERLDEAQEAARFVQQFGNQLAKLEPIVSVLQSDPEQFEQLKEDYAYSQQMQRDARQQAFALTEVVQRRAHFSYSDSAEMLSGNSDLNEKLRERLEQAEAERTRAREALRGHAAQLSQYNQVLASLKSSYDTKKELLNDLQRELQDIGVRADSGAEERARIRRDELHAQLSNNRSRRNQLEKALTFCEAEMDNLTRKLRKLERDYFEMREQVVTAKAGWCAVMRMVKDNGVERRLHRRELAYLSADDLRSMSDKALGALRLAVADNEHLRDVLRMSEDPKRPERKIQFFVAVYQHLRERIRQDIIRTDDPVEAIEQMEIELSRLTEELTSREQKLAISSRSVANIIRKTIQREQNRIRMLNQGLQNVSFGQVNSVRLNVNVRETHAMLLDVLSEQHEQHQDLFNSNRLTFSEALAKLYQRLNPQIDMGQRTPQTIGEELLDYRNYLEMEVEVNRGSDGWLRAESGALSTGEAIGTGMSILVMVVQSWEDESRRLRGKDISPCRLLFLDEAARLDARSIATLFELCERLQMQLIIAAPENISPEKGTTYKLVRKVFQNTEHVHVVGLRGFAPQLPETLPGTDEAPSQAS
B2: MukF (natural protein, Escherichia coli, UniProt P60293 1-440, looked up)
chain: MSEFSQTVPELVAWARKNDFSISLPVDRLSFLLAVATLNGERLDGEMSEGELVDAFRHVSDAFEQTSETIGVRANNAINDMVRQRLLNRFTSEQAEGNAIYRLTPLGIGITDYYIRQREFSTLRLSMQLSIVAGELKRAADAAEEGGDEFHWHRNVYAPLKYSVAEIFDSIDLTQRLMDEQQQQVKDDIAQLLNKDWRAAISSCELLLSETSGTLRELQDTLEAAGDKLQANLLRIQDATMTHDDLHFVDRLVFDLQSKLDRIISWGQQSIDLWIGYDRHVHKFIRTAIDMDKNRVFAQRLRQSVQTYFDEPWALTYANADRLLDMRDEEMALRDEEVTGELPEDLEYEEFNEIREQLAAIIEEQLAVYKTRQVPLDLGLVVREYLSQYPRARHFDVARIVIDQAVRLGVAQADFTGLPAKWQPINDYGAKVQAHVIDKY
B3: acyl carrier protein (AcpP) (natural protein, E. coli (endogenous in BL21(DE3)), UniProt P0A6A8 1-78, looked up)
chain: MSTIEERVKKIIGEQLGVKQEEVTNNASFVEDLGADSLDTVELVMALEEEFDTEIPDEEAEKITTVQAAIDYINGHQA
B4: ParC subunit of topoisomerase IV (natural protein, Escherichia coli, UniProt P0AFI2 1-752, looked up)
chain: MSDMAERLALHEFTENAYLNYSMYVIMDRALPFIGDGLKPVQRRIVYAMSELGLNASAKFKKSARTVGDVLGKYHPHGDSACYEAMVLMAQPFSYRYPLVDGQGNWGAPDDPKSFAAMRYTESRLSKYSELLLSELGQGTADWVPNFDGTLQEPKMLPARLPNILLNGTTGIAVGMATDIPPHNLREVAQAAIALIDQPKTTLDQLLDIVQGPDYPTEAEIITSRAEIRKIYENGRGSVRMRAVWKKEDGAVVISALPHQVSGARVLEQIAAQMRNKKLPMVDDLRDESDHENPTRLVIVPRSNRVDMDQVMNHLFATTDLEKSYRINLNMIGLDGRPAVKNLLEILSEWLVFRRDTVRRRLNYRLEKVLKRLHILEGLLVAFLNIDEVIEIIRNEDEPKPALMSRFGLTETQAEAILELKLRHLAKLEEMKIRGEQSELEKERDQLQGILASERKMNNLLKKELQADAQAYGDDRRSPLQEREEAKAMSEHDMLPSEPVTIVLSQMGWVRSAKGHDIDAPGLNYKAGDSFKAAVKGKSNQPVVFVDSTGRSYAIDPITLPSARGQGEPLTGKLTLPPGATVDHMLMESDDQKLLMASDAGYGFVCTFNDLVARNRAGKALITLPENAHVMPPVVIEDASDMLLAITQAGRMLMFPVSDLPQLSKGKGNKIINIPSAEAARGEDGLAQLYVLPPQSTLTIHVGKRKIKLRPEELQKVTGERGRRGTLMRGLQRIDRVEIDSPRRASSGDSEE

The data set “cross-linking” deals with the molecule itself. Put plainly: cross-linking.
Data set [1] addresses B1. Put plainly: cross-linking.
Data set [2] has as its target B1. Put plainly: co-purification.
Data set [3] deals with B1. Put plainly: cross-linking. This is another data set of the same source.

On to B1, for which the binding result in “cross-linking” is “binds”.

Regarding B2, the binding result with MukB [1] is recorded as “binds”. Turning to B3, the “stoichiometry N” value in the data set with MukB [2] was 1 AcpP:MukB.

On to B4, for which the binding result in the data set with MukB [3] was “binds”.
